From the supplement of paper PMC9170038

System: MS2 coat protein
Test: apparent KD of MS2 coat protein; designed switch direction (-1 OFF switch, 1 ON switch): -1; higher = weaker reporter binding
Procedure, shortened: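 RNA switches sharing common flanks were transcribed by stalled E. coli RNA polymerase on Illumina chips. A doubling series of SNAP-549-labelled MS2 coat protein, from 0.7 or 1.5 nM to 3 µM, was applied in Tris-HCl pH 7.5 buffer with KCl, MgCl2, BSA, DTT, tRNA and Tween-20. Each step lasted 0.8–1.5 h at the bottom of the series and 10–20 min at the top. Normalised cluster fluorescence was curve-fitted, giving apparent KD as the per-design median over clusters.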

[1] = Eterna round: R95, input ligand: FMN 200 uM
[2] = Eterna round: R95, input ligand: microRNA oligo, concentration not stated
[3] = Eterna round: R95, input ligand: none
[4] = input ligand: microRNA oligo, concentration not stated

Sequence	apparent KD of MS2 coat protein [2] [nM]	apparent KD of MS2 coat protein (input ligand: FMN 200 uM) [nM]	apparent KD of MS2 coat protein (input ligand: none) [nM]	also measured
CCGCAAAUGCAGGAUAUCGUAUCGGAUACGAUACGAGAAGGGCGAACAUGAGGAUCACCCAUGUGUCCUAGCGG [Fiskers Ex 6 - 40] (puzzle: Exclusion 6)	40.3			apparent KD of MS2 coat protein [1]: 34.7 nM; apparent KD of MS2 coat protein [3]: 51.6 nM
CCGCAAAUGGAGGAUAUCGUAUCGGAUACGAUACGAGAAGGCUAUACAUGAGGAUCACCCAUGUGUCCUAGCGG [Fiskers Ex 6 - 46] (puzzle: Exclusion 6)	11.4			
CCGCAGCGGUAGGAUAUUAUGACGUCAUGGGCAUAAGAAGGACCGACAUGAGGAUCACCCAUGUUGGGUGCCCG [EX6 C.24] (Eterna round: R97, puzzle: Exclusion 6)		33.7	21.7	
CCGCAUAUGCAGGAUAUCGUAUCGGAAACGAUACGAGAAGGGUAAACAUGAGGAUCACCCAUGUUCCUUAACGG [Fiskers Ex 6 - 28] (puzzle: Exclusion 6)	14.6			
CCGCGCCGGCGAGGAUAUUAGAAAGGAAGUGUAUAAGAAGGCGCCAUGCGCGAACAUGAGGAUCACCCAUGUGCCGCUCGUGUA [PowerStrip EXNG 1.24] (Eterna round: R96, puzzle: Exclusion NG 1)		39.7	23.1	apparent KD of MS2 coat protein [4]: 15.4 nM
CCGCUCCGUGUAGGAUAUCGGCGUACCCUGCGCCGAGAAGGACAUGAGGAUCACCCAUGUAUGUUAUUAUCACGCGUGGCGCAC [Design 74] (Eterna round: R96, puzzle: Exclusion NG 1)		19.8	20.2	apparent KD of MS2 coat protein [4]: 14.6 nM
CCGCUGCAAGGAUAUACUUGCGGUGGUGCUCGAGAUCUUUUACUUGAGGAUCACCCAAGUAGAAGGUGCAAAAC [jl-ex2.4.53 ViennaUCT mod] (Eterna round: R97, puzzle: Exclusion 2)		26.2	17.9	
CCGGAAAGGAAGGAUAUGCUAGACGAUAGUCUAGCAGAAGGUCCUACAUGAGGAUCACCCAUGUGGCCUCCCGG [Mat - Exclusion 6 - Eli Mod - D47] (Eterna round: R97, puzzle: Exclusion 6)		680	114	
CCGGAAAUACAGGAUAUAGGAGUCAAUAGACUCCUAGAAGGGUAUACAUGAGGAUCACCCAUGUGUCCUACCGG [Fiskers Ex 6 - 66] (Eterna round: R96, puzzle: Exclusion 6)		39.9	27.7	apparent KD of MS2 coat protein [4]: 23.3 nM
CCGGAAAUACAGGAUAUAGGAGUCAAUAGACUCCUAGAAGGGUAUACAUGAGGAUCACCCAUGUGUCCUACCGG [Fiskers Ex 6 - 66] (puzzle: Exclusion 6)	25.1			
CCGGAAAUAGAGGAUAUAGGAGUCGAUAGACUCCUAGAAGGCUAUACAUGAGGAUCACCCAUGUGUCCUACCGG [Fiskers Ex 6 - 65] (puzzle: Exclusion 6)	16.6			
CCGGAUAUGCAGGAUAUCGAAUCGGAAACGAUUCGAGAAGGGUAUACAUGAGGAUCACCCAUGUGUCCUACCGG [Mat - Exclusion 6 - Eli Mod - D87] (puzzle: Exclusion 6)	19.4			
CCGGAUAUGCAGGAUAUCGUAACGGAAACGUUACGAGAAGGGUAUACAUGAGGAUCACCCAUGUGUCCUACCGG [Mat - Exclusion 6 - Eli Mod - D86] (puzzle: Exclusion 6)	21.1			
CCGGCUGCUGUGAGGAUAUGCCUGCGCGCCCGCGGGCAGAAGGCACAUGAGGAUCACCCAUGUCCUGCGGUCCC [salish99_bmx4_r4_119] (Eterna round: R97, puzzle: Brourd's mod of Exclusion 4)		45.2	18.2	
CCGGUAGCAUAGGAUAUCGCCAACGUUGUAGUACGAGAAGGGUGCACAUGAGGAUCACCCAUGUUUCCUGGCCG [Eternabot (L2) Solution 63] (Eterna round: R97, puzzle: Exclusion 6)		107	131	
CCGGUUGGCGCAGGAUAUACAUGAGGAUCACCCAUGUUCGUGAGGAUCACCCAUGAGUUUUUGUUGUAGAAGGGUGGCCCGGCC (Eterna round: R96, puzzle: Exclusion NG 2)		24.4	28.5	apparent KD of MS2 coat protein [4]: 16 nM
CCGUGCACGCUGCGCUCCUACAUGAGGAUCACCCAUGUGGUCCGGUGGCGUGGGUCGCCGGACUUGGCUCGUCUUGU [salish99_S_TOV1_R5_019] (Eterna round: R97, puzzle: Sensor, turn-off variant 1)		83.1		

Sequence	apparent KD of MS2 coat protein [2] [nM]	apparent KD of MS2 coat protein (input ligand: FMN 200 uM) [nM]	apparent KD of MS2 coat protein (input ligand: none) [nM]	also measured
CCGUGCACGCUGCGGUCCUACAUGAGGAUCACCCAUGUGGUCUGGUGGCGUGGGUCGCCGGACUUGGCUCGUCUUGA [salish99_S_TOV1_R5_021] (Eterna round: R97, puzzle: Sensor, turn-off variant 1)		18.8	19.2	
CCUAGCCUAAAAUCACGCAAGCUUUUUGCUUGUCUUAAGACAUGAGGAUCACCCAUGUCCGGGCUGAACUUAUGGAA [Veorxe] (puzzle: Sensor v3, turn-off variant 2)	23.2			apparent KD of MS2 coat protein [1]: 17.8 nM; apparent KD of MS2 coat protein [3]: 16.6 nM
CCUAUGUGAGGAUAUGUCUGGUCUUCUUUUGUUUUUUACAGACAGAAGGCACAUGAGGAUCACCCAUGUCAGAC [Ex4 - 3 - 47] (puzzle: Exclusion 4)	17			
CCUAUGUUAGGAUAUCUAGUAAGAGGCCCAUAGGGCCGUGCAGAGAAGGGACAUGAGGAUCACCCAUGUGUCAC [Eternabot (L1) Solution 86] (Eterna round: R97, puzzle: Exclusion 4)		26.7	34.6	
CCUCCACAUGAGGAUCACCCAUGUCAGGAUAUCGUGUGUGCGUUUUCGGUCUUUCGCGCGAGAAGGGACGACUG (puzzle: Exclusion 1)	27.5			
CCUCCACAUGAGGAUCACCCAUGUCAGGAUAUCGUGUGUUUUUUUUCGGUCGUGCGUGCGAGAAGGGACGUCUU (puzzle: Exclusion 1)	24.8			
CCUCCGCAUUAGGAUAUCGUCACAGAAAUGUGACGAGAAGGAAUGACAUGAGGAUCACCCAUGUUAACGUGAUG [Mod of Brourd 15 - Jieux - Exclusion 6] (Eterna round: R97, puzzle: Exclusion 6)		276	48.7	
CCUCCGCAUUAGGAUAUCGUCCCGGAAACGGGACGAGAAGGAAUGACAUGAGGAUCACCCAUGUUAACGUGAUG [Mod of Brourd 18 - Jieux - Exclusion 6] (Eterna round: R97, puzzle: Exclusion 6)		304	48.2	
CCUCGACAUGAGGAUCACCCAUGUCAGGAUAUUGUGUUUUGGGUUUUUUACCUUUAGGCAAGAAGGGAUGUGUG [LRO-Excl1-17] (puzzle: Exclusion 1)	16.1			
CCUCGCAGGCAAGGAUAUCCUACAUUGUUCUGGCCCGGGCAUGCUACAUGAGGAUCACCCAUGUGGGAGAAGGUGCGCCACGGC [Design 31] (Eterna round: R96, puzzle: Exclusion NG 2)		48.3	42.2	apparent KD of MS2 coat protein [4]: 28.1 nM
CGAGCUUUUUGCUCGUCUUACAUGAGGAUCACCCAUGUCAUACAGAUAGAUAUACGAAAAGUAUAUCUAUCUGUAUG [Mod of sellena's -59.4, -80.7 kcal, A 10%] (Eterna round: R97, puzzle: Sensor, turn-off variant 1)		23.3	27.5	
CGAGUGUAAGGAUAUUCGGCACUAGGGACCACCCUAGUGUAGAAGAAGGUACAUGAGGAUCACCCAUGUGGUUA [Bereisonma] (puzzle: Exclusion 4)	273			
CGAUGCUCGAAUCCACAUGAGGAUCACCCAUGUCGAGUUAGCGAGGAUAUCGGAGACACAUAGUAUGAGAAGGCGCGAACCUGA [Ex NG3 #23] (Eterna round: R96, puzzle: Exclusion NG 3)		15.5	12.1	apparent KD of MS2 coat protein [4]: 10.5 nM
CGAUGCUCGAAUCCACAUGAGGAUCACCCAUGUCGAGUUAGCGAGGAUAUCGGUGACACAUAGUACGAGAAGGCGCGAACCUGA [Ex NG3 #25] (Eterna round: R96, puzzle: Exclusion NG 3)		50.9	34.8	apparent KD of MS2 coat protein [4]: 28.3 nM
CGAUGUUAUGUCAGGAUAUGCAUUGCGAAAGCGAUGCAGAAGGGACAUGAGGAUCACCCAUGUCCUAACCAUCG [Omei A 6] (puzzle: Brourd's mod of Exclusion 4)	11.6			
CGAUGUUAUGUCAGGAUAUGCGUUGCGAAAGCAAUGUAGAAGGGACAUGAGGAUCACCCAUGUCCUAACCAUCG [Omei A 8] (puzzle: Brourd's mod of Exclusion 4)	13			apparent KD of MS2 coat protein [1]: 15.1 nM; apparent KD of MS2 coat protein [3]: 13.5 nM
